Assay results from patent publication US11858993B2, “Multi-specific antibodies with affinity for human A33 antigen and DOTA metal complex and uses thereof” (Memorial Sloan Kettering Cancer Center, priority 2015, dated 2024).
“Also recorded” adds a separate entry of the source. Read-outs that look alike come from different tables or passages of the source.

Experiments:
[1] = test system: SW1222 s.c. xenografts; test: Three-cycle theranostic PRIT with nanoSPECT/CT dosimetry; type: in vivo, Nude mice
Protocol: Nude mice bearing established SW1222 s.c. xenografts (n=20; tumor volume=102±40 mm^3; average±standard deviation (SD)) underwent treatment (n=5-10/group) with either: no treatment (n=5), ^177Lu-DOTA-Bn only (n=5), or a three-cycle PRIT regimen consisting of anti-GPA33 PRIT+55 MBq of ^177Lu-DOTA-Bn (n=10; total: 165 MBq). Serial nanoSPECT/CT imaging was conducted on five randomly selected mice undergoing DPRIT up to 160 hours post-injection of the first cycle of ^177Lu-DOTA-Bn for dosimetry calculations.

[2] = test system: SW1222 tumor; test: ^177Lu-DOTA-Bn dose titration, tumor uptake and saturation during PRIT; type: in vivo, mice
Protocol: FIGS. 4A-4D show exemplary tumor uptake of ^177Lu-DOTA-Bn at 24 hours post injection as a function of radioactivity in the treatment of mice bearing a human colon cancer xenograft (SW1222); (FIG. 4A) uptake of amounts of ^177Lu-DOTA-Bn in various tissues. (FIG. 4B) Uptake of amounts of ^177Lu-DOTA-Bn in SW1222 tumors; (FIG. 4C) activity of ^177Lu-DOTA-Bn in SW1222 tumors and kidneys 24 hours post injection per amount of injected ^177Lu-DOTA-Bn; (FIG. 4D) pmoles of ^177Lu-DOTA-Bn binding in the tumor 24 hours post injection per amount of injected ^177Lu-DOTA-Bn. Saturation was achieved after approximately 40 MBq of injected activity.
As described herein, the present inventors provide an improved multi-step PRIT method in immunocompromised mice bearing s.c. A33-positive human colorectal tumors (SW1222) using a bispecific antibody termed huA33-C825. Such methodology includes i.v. injection of various doses of huA33-C825 and a dextran-based CA, followed with injection of ^177Lu-DOTA-Bn theranostic (i.e., diagnostic and therapeutic) hapten for simultaneous scintigraphic imaging and radioimmunotherapy. The present invention specifically describes biodistribution studies that provide optimum huA33-C825 and CA doses, followed with a series of additional biodistribution studies to determine the tumor uptake as a function of ^177Lu-DOTA-Bn doses (˜2.0-111.0 MBq) to serve as a practical and dosimetric guide for PRIT studies. Also, as described herein, tumors and kidneys were excised at 24 hours post injection of ^177Lu-DOTA-Bn at three different dose levels (11.1, 55.0, and 111.0 MBq) to examine ex vivo the ^177Lu-activity microdistribution via autoradiography, as well as correlate the ^177Lu-activity with the xenograft and tissue morphology via hematoxylin and eosin staining. Further, the estimated absolute SW1222 tumor uptake of huA33-C825 24 h p.i. of 0.25 mg/mouse based on radioactive tracer studies with ^131I-huA33-C825 was ˜90 pmol/g of tumor.

[3] = test system: A33-positive SW1222 xenografts; conditions: for Complete Response / Cures at 40 d post-treatment: Single-cycle; for tumor volume: day 23 post tumor-inoculation, average±SEM
Source text: All animal experiments were approved by the Institutional Animal Care and Use Committee of Memorial Sloan Kettering Cancer Center and institutional guidelines for the proper and humane use of animals in research were followed. Athymic nu/nu female mice (6-8 weeks old; Harlan Sprague Dawley) were allowed to acclimate in the vivarium for at least one week. […] All reagents were given intravenously (i.v.) via the lateral tail vein. […] In addition, huA33-C825 was trace radiolabeled with I-131 to estimate tumor uptake during PRIT. […] (Lindmo, T. et al., 1990, J. Immunol. Meth. 126(2):183-189). For PRIT with non-specific IgG-C825, an equivalent mg dose of a GD2-targeted bispecific antibody (hu3F8-C825) was used in place of huA33-C825. For ex vivo biodistribution analysis, mice were euthanized by CO2(g) asphyxiation, and tumor and selected organs were harvested, rinsed with water and allowed to air-dry, weighed and radioassayed by gamma scintillation counting (Perkin Elmer Wallac Wizard 3″). Count rates were background and decay corrected, converted to activities using a system calibration factor, normalized to the administered activity, and expressed as percent injected dose per gram (% ID/g). Differences in ^177Lu-activity concentration in tumor and various tissues were analyzed by Student's unpaired t test when appropriate.

[4] = Stability by SE-HPLC and Biacore after freeze and thaw cycles; type: physicochemical; conditions: after multiple freeze and thaw cycles
[5] = molecular target: T1, Recombinant human A33 protein (Homo sapiens, UniProt Q99795); test: Biacore T100 surface plasmon resonance, binding to human A33 antigen; conditions: Biacore T100, bivalent analyte model
T1 construct: purchased Novoprotein
T1 sequence (Q99795 22-319): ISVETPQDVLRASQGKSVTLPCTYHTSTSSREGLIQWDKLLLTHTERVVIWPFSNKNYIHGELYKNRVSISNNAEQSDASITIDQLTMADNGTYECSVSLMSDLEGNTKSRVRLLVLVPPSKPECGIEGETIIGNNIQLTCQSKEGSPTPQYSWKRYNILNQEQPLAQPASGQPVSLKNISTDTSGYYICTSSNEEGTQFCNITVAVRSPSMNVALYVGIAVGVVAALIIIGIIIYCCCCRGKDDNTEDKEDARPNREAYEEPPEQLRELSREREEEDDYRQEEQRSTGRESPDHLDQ
Protocol: Binding affinity was measured by Biacore T100.
Biacore T100 Biosensor, CM5 sensor chip, and related reagents were purchased from GE Healthcare. Recombinant human A33 protein was purchased from Novoprotein. A BSA-(Y)-DOTA-Bn conjugate was prepared as described (Cheal et al., supra). A33 and DOTA antigens were immobilized using the Amino Coupling kit (GE Healthcare). Purified bispecific antibodies and control antibodies were analyzed, and data were fit to a bivalent analyte model using the Biacore T100 evaluation software as described (Cheal et al., supra).

[6] = Triple-cycle, + 55.5 MBq (×3), 165.0 MBq
[7] = single-cycle huA33-C825 PRIT+either 11.1 MBq or 33.3 MBq ^177Lu-DOTA-Bn

For “huA33-C825: bispecific antibody: humanized A33 IgG1 with murine C825 anti-DOTA-Bn scFv linked to the light chain C-terminus”, the mice cured ([1]; 3 cycle dosing regimen) was 10/10, the “Complete Response” value [1, 6] was 10/10 and the “Cures at 40 d post-treatment” value [1, 6] was 10/10. For the same substance, the “histopathologic findings of kidney, liver, spleen, and bone/marrow” value ([1]; mouse, in vivo) was “no remarkable histopathologic findings”, the “radiation dose to blood” value ([1]; mouse, in vivo) was 150 rads and the “radiation dose to kidney” value ([1]; mouse, in vivo) was 875 rads. The toxicity ([1]; three-cycle PRIT (total 165 MBq)) was “without detectable toxicity; also recorded: no obvious toxicities”, the “tumor-free survival at 100 days” value ([1]; three-cycle PRIT, 55 MBq/cycle (total 165 MBq)) was “all treated animals” and the “estimated maximum occupancy (fraction)” value ([2]; 11 pmol ^177Lu-DOTA-Bn/180 pmol) was 0.061. The peak tumor uptake ([2]; PRIT+55.5 ^177Lu-DOTA-Bn per cycle) was 3 % ID/g, the “injected activity of ^177Lu-DOTA-Bn after which saturation of tumor binding was achieved” value ([2]; SW1222 tumors, 24 hours post injection) was “approximately 40 MBq” and the “^177Lu-DOTA-Bn bound in tumor used for maximum occupancy” value ([2]; mouse, in vivo) was 11 pmol. The “maximum ^177Lu-DOTA-Bn binding capacity” value ([2]; two ^177Lu-DOTA-Bn per huA33-C825 molecule) was 180 pmol/g tumor, the “Complete Response” value ([3]; + 11.1 MBq) was 0/8 and the “Cures at 40 d post-treatment” value ([3]; + 11.1 MBq) was 0/8. The “Complete Response” value ([3]; + 33.3 MBq) was 0/8, the “Cures at 40 d post-treatment” value ([3]; + 33.3 MBq) was 0/8 and the tumor volume ([3]; 11.1 MBq ^177Lu-DOTA-Bn) was 694±138 mm^3. For the same substance, the tumor volume ([3]; 33.3 MBq ^177Lu-DOTA-Bn) was 495±76 mm^3, the “effective dose range (tumor)” value ([3]; mouse, in vivo) was 1800-2200 cGy and the “complete response (CR)” value [3, 7] was “no CR”. The “slight growth delay of the tumors, up to (days following treatment)” value [3, 7] was about 15 days, the “stability by SE-HPLC and Biacore” value [4] was “remained stable” and the koff [5] was 0.00581 s⁻¹. It also gave a kon [5] of 91500 M⁻¹ s⁻¹.
